Key:
p53^WT/HLA-A*02:01 pHLA [1] = target: p53^WT/HLA-A*02:01 pHLA (human); assay: ELISA, scDb on biotinylated pHLA on streptavidin plate; protein L, anti-protein L HRP
Description: Streptavidin-coated, 96-well plates (R&D Systems, Minneapolis, Minn., CP004) were coated with 50 ng of biotinylated HLA-A*02:01 pHLA monomers in 50 μL of blocking buffer (PBS with 0.5% BSA, 2 mM EDTA, and 0.1% sodium azide) or 25 ng of recombinant human CD3/6 (Acro Biosystems, DE, CDD-H52W4) at 4° C. overnight. […] Serial dilutions of scDb or IgG was incubated on the plate for 1 hour at RT and washed.

RAS Q61WT[55-64] pHLA-A1 [2] = target: T1, RAS Q61WT[55-64] pHLA-A1 (human); assay: flow cytometry, phage on peptide-pulsed SigM5 cells; anti-M13, anti-rabbit PE
T1 construct: also called Q61WT pHLA-A1; H/K/N RAS WT(55-64) peptide on HLA-A1

RAS Q61WT[55-64] pHLA-A1 [3] = target: T1, RAS Q61WT[55-64] pHLA-A1; assay: flow cytometry: scFv phage supernatant on peptide-pulsed SigM5 cells (HLA-A1+), median fluorescence intensity
RAS Q61WT[55-64] pHLA-A1 [4] = target: T1, RAS Q61WT[55-64] pHLA-A1; assay: flow cytometry, phage on peptide-pulsed SigM5 cells; anti-M13, anti-rabbit PE; remark: listed apart in the source
RAS Q61WT[55-64] pHLA-A1 [5] = target: T1, RAS Q61WT[55-64] pHLA-A1; assay: as above; remark: listed apart in the source
RAS Q61WT[55-64] pHLA-A1 [6] = target: T1, RAS Q61WT[55-64] pHLA-A1; assay: ELISA, scDb at 10 nM on titrated biotinylated pHLA-A1 on streptavidin plate; protein L, anti-protein L HRP
[7] = target: T2, CHD4 peptide (…) on HLA-A1 (human); assay: co-culture of peptide-pulsed SigM5 cells with T cells and L2-U scDb; IFNγ release
T2 construct: whole, on cells; on peptide-pulsed SigM5 cells
Description: (A) Each amino acid of the G12V peptide was systematically changed to the other 19 amino acids. T2A3 cells were pulsed with 10 μM of the G12V peptide library. […] Cells were incubated for 24 hour and assayed for secreted IFNγ. […] Cells were incubated for 24 hours and assayed for secreted IFNγ. […] Cells were incubated for 24 hours and assayed for secreted IFNγ.
The library of peptides was generated by systematically substituting each amino acid of the original peptides with the other 19 amino acids. […] Recognition of the variant peptides was evaluated through IFNγ release (FIG. 44, A and B, FIG. 63, A and B). […] Next, using a 20% cognate peptide reactivity as a cutoff for permissive amino acids at each position, decamer binding motifs were generated for each candidate target peptide (Materials and Methods).

RAS Q61WT[55-64] pHLA-A1 [8] = target: T1, RAS Q61WT[55-64] pHLA-A1; assay: ELISA, scDb at 10 nM on titrated biotinylated pHLA-A1 on streptavidin plate; protein L, anti-protein L HRP; remark: listed apart in the source
RAS Q61WT[55-64] pHLA-A1 [9] = target: T1, RAS Q61WT[55-64] pHLA-A1; assay: as above; remark: listed apart in the source
p53^WT/HLA-A*02:01 pHLA [10] = target: p53^WT/HLA-A*02:01 pHLA (human); assay: flow cytometry: scFv phage supernatant on peptide-pulsed T2 cells (HLA-A2+), median fluorescence intensity
Description: Cells were stained with 50 μL of phage supernatant per 50 μL of cells, washed and stained with rabbit anti-M13 antibody, then washed and stained with anti-Rabbit-PE antibody. Cells were stained with a live/dead Near-infrared (IR) dye, washed, and analyzed by an iQue Screener (IntelliCyt, Albuquerque, N. Mex.).
The pulsed cells were pelleted, washed once in cold staining buffer (PBS containing 0.5% BSA, 2 mM EDTA, and 0.1% sodium azide), and resuspended in 50 μL of stain buffer. Phage staining was performed on ice with 50 μL monoclonal phage supernatant for 1 hour, followed by one 800 μL wash in cold staining buffer. Cells were then stained with 1 μg of rabbit anti-M13 antibody (Novus Biologics, Centennial, Colo.) in 100 μL total volume on ice for 1 hour and washed once with 800 μL of cold staining buffer. Cells were then stained with 5 μL anti-rabbit-PE (Biolegend) on ice for 1 hour in 100 μL total volume, followed by incubation with 200 μL LIVE/DEAD Fixable Near-IR Dead Cell Stain (Thermo Fisher) for 10 minutes at room temperature per manufacturer's instructions. Cells were washed once in 800 μL of staining buffer. Stained cells were analyzed using an iQue Screener (IntelliCyt, Albuquerque, N. Mex.).

B1: H20-UCHT1-scDb (bispecific antibody)
chain: DIQMTQSPSSLSASVGDRVTITCRASQDVNTAVAWYQQKPGKAPKLLIYSASFLYSGVPSRFSGSRSGTDFTLTISSLQPEDFATYYCQQSNAYPITFGQGTKVEIKGGGGSEVQLQQSGPELVKPGASMKISCKASGYSFTGYTMNWVKQSHGKNLEWMGLINPYKGVSTYNQKFKDKATLTVDKSSSTAYMELLSLTSEDSAVYYCARSGYYGDSDWYFDVWGAGTTVTVSSGGGGSGGGGSGGGGSDIQMTQTTSSLSASLGDRVTISCRASQDIRNYLNWYQQKPDGTVKLLIYYTSRLHSGVPSKFSGSGSGTDYSLTISNLEQEDIATYFCQQGNTLPWTFAGGTKLEIKGGGGSEVQLVESGGGLVQPGGSLRLSCAASGFNLNSYYMHWVRQAPGKGLEWVAMIIPGYGYTNYADSVKGRFTISADTSKNTAYLQMNSLRAEDTAVYYCSRSYYMYMDYWGQGTLVTVSSHHHHHH
notes: single-chain diabody of H20 with the anti-CD3 scFv UCHT1; also called H20-scDb
binding result (p53^WT/HLA-A*02:01 pHLA [1]): binds

B2: H/K/N RAS Q61H_A1_cl1 (H1) (scFv)
scFv: DIQMTQSPSSLSASVGDRVTITCRASQDVNTAVAWYQQKPGKAPKLLIYSASFLYSGVPSRFSGSRSGTDFTLTISSLQPEDFATYYCQQVIYYPFTFGQGTKVEIKRTGGGSGGGGSGGGASEVQLVESGGGLVQPGGSLRLSCAASGFNLYSYAIHWVRQAPGKGLEWVALLYPDYGVTSYADSVKGRFTISADTSKNTAYLQMNSLRAEDTAVYYCSRYRSYEYSVSSYSYSAMDYWGQGTLVTVSS
notes: also called Q61H clone H1; H1 scFv
binding result (RAS Q61WT[55-64] pHLA-A1 [2]): no binding (tested: single dose (50 µL phage supernatant))

B3: H/K/N RAS Q61H_A1_cl10 (scFv)
scFv: DIQMTQSPSSLSASVGDRVTITCRASQDVNTAVAWYQQKPGKAPKLLIYSASFLYSGVPSRFSGSRSGTDFTLTISSLQPEDFATYYCQQTYYTPVTFGQGTKVEIKRTGGGSGGGGSGGGASEVQLVESGGGLVQPGGSLRLSCAASGFNISHYVMHWVRQAPGKGLEWVADFYPHSDSTYYADSVKGRFTISADTSKNTAYLQMNSLRAEDTAVYYCSRYQSYSFDYWGQGTLVTVSS
binding result (RAS Q61WT[55-64] pHLA-A1 [3]): no binding

B4: H/K/N RAS Q61L_A1_cl2 (L2) (scFv)
scFv: DIQMTQSPSSLSASVGDRVTITCRASQDVNTAVAWYQQKPGKAPKLLIYSASFLYSGVPSRFSGSRSGTDFTLTISSLQPEDFATYYCQQAVSYPWTFGQGTKVEIKRTGGGSGGGGSGGGASEVQLVESGGGLVQPGGSLRLSCAASGFNISSSGIHWVRQAPGKGLEWVAMVYGGSGYTNYADSVKGRFTISADTSKNTAYLQMNSLRAEDTAVYYCSRWAHYSAYMDYWGQGTLVTVSS
notes: also called Q61L clone L2; L2 scFv
binding result (RAS Q61WT[55-64] pHLA-A1 [4]): no binding (tested: single dose (50 µL phage supernatant))

B5: H/R/N RAS Q61R_A1_cl6 (R6) (scFv)
scFv: DIQMTQSPSSLSASVGDRVTITCRASQDVNTAVAWYQQKPGKAPKLLIYSASFLYSGVPSRFSGSRSGTDFTLTISSLQPEDFATYYCQQYSNYPLTFGQGTKVEIKRTGGGSGGGGSGGGASEVQLVESGGGLVQPGGSLRLSCAASGFNVFYGSMHWVRQAPGKGLEWVAFIGPDSTYTYYADSVKGRFTISADTSKNTAYLQMNSLRAEDTAVYYCSRDLGSAYAMDYWGQGTLVTVSS
notes: also called Q61R clone R6; R6 scFv
binding result (RAS Q61WT[55-64] pHLA-A1 [5]): no binding (tested: single dose (50 µL phage supernatant))

B6: H1-U scDb (bispecific antibody)
chain: DIQMTQSPSSLSASVGDRVTITCRASQDVNTAVAWYQQKPGKAPKLLIYSASFLYSGVPSRFSGSRSGTDFTLTISSLQPEDFATYYCQQVIYYPFTFGQGTKVEIKGGGGSEVQLQQSGPELVKPGASMKISCKASGYSFTGYTMNWVKQSHGKNLEWMGLINPYKGVSTYNQKFKDKATLTVDKSSSTAYMELLSLTSEDSAVYYCARSGYYGDSDWYFDVWGAGTTVTVSSGGGGSGGGGSGGGGSDIQMTQTTSSLSASLGDRVTISCRASQDIRNYLNWYQQKPDGTVKLLIYYTSRLHSGVPSKFSGSGSGTDYSLTISNLEQEDIATYFCQQGNTLPWTFAGGTKLEIKGGGGSEVQLVESGGGLVQPGGSLRLSCAASGFNLYSYAIHWVRQAPGKGLEWVALLYPDYGVTSYADSVKGRFTISADTSKNTAYLQMNSLRAEDTAVYYCSRYRSYEYSVSSYSYSAMDYWGQGTLVTVSSHHHHHH
binding result (RAS Q61WT[55-64] pHLA-A1 [6]): no binding (tested: 10 ug/mL coated pHLA-A1, scDb at 10 nM)

B7: L2-U scDb (bispecific antibody)
chain: DIQMTQSPSSLSASVGDRVTITCRASQDVNTAVAWYQQKPGKAPKLLIYSASFLYSGVPSRFSGSRSGTDFTLTISSLQPEDFATYYCQQAVSYPWTFGQGTKVEIKGGGGSEVQLQQSGPELVKPGASMKISCKASGYSFTGYTMNWVKQSHGKNLEWMGLINPYKGVSTYNQKFKDKATLTVDKSSSTAYMELLSLTSEDSAVYYCARSGYYGDSDWYFDVWGAGTTVTVSSGGGGSGGGGSGGGGSDIQMTQTTSSLSASLGDRVTISCRASQDIRNYLNWYQQKPDGTVKLLIYYTSRLHSGVPSKFSGSGSGTDYSLTISNLEQEDIATYFCQQGNTLPWTFAGGTKLEIKGGGGSEVQLVESGGGLVQPGGSLRLSCAASGFNISSSGIHWVRQAPGKGLEWVAMVYGGSGYTNYADSVKGRFTISADTSKNTAYLQMNSLRAEDTAVYYCSRWAHYSAYMDYWGQGTLVTVSSHHHHHH
notes: also called L2 single chain diabody; H/K/N RAS Q61L(55-64)-A1 cl.2 UCHT1 scDb
binding result [7]: no binding (tested: 1 nM scDb) | binding result (RAS Q61WT[55-64] pHLA-A1 [8]): no binding (tested: 10 ug/mL coated pHLA-A1, scDb at 10 nM)

B8: R6-U scDb (bispecific antibody)
chain: DIQMTQSPSSLSASVGDRVTITCRASQDVNTAVAWYQQKPGKAPKLLIYSASFLYSGVPSRFSGSRSGTDFTLTISSLQPEDFATYYCQQYSNYPLTFGQGTKVEIKGGGGSEVQLQQSGPELVKPGASMKISCKASGYSFTGYTMNWVKQSHGKNLEWMGLINPYKGVSTYNQKFKDKATLTVDKSSSTAYMELLSLTSEDSAVYYCARSGYYGDSDWYFDVWGAGTTVTVSSGGGGSGGGGSGGGGSDIQMTQTTSSLSASLGDRVTISCRASQDIRNYLNWYQQKPDGTVKLLIYYTSRLHSGVPSKFSGSGSGTDYSLTISNLEQEDIATYFCQQGNTLPWTFAGGTKLEIKGGGGSEVQLVESGGGLVQPGGSLRLSCAASGFNVFYGSMHWVRQAPGKGLEWVAFIGPDSTYTYYADSVKGRFTISADTSKNTAYLQMNSLRAEDTAVYYCSRDLGSAYAMDYWGQGTLVTVSSHHHHHH
binding result (RAS Q61WT[55-64] pHLA-A1 [9]): no binding (tested: 10 ug/mL coated pHLA-A1, scDb at 10 nM)

B9: p53_R175H_A2_cl6 (scFv)
scFv: DIQMTQSPSSLSASVGDRVTITCRASQDVNTAVAWYQQKPGKAPKLLIYSASFLYSGVPSRFSGSRSGTDFTLTISSLQPEDFATYYCQQQSSTPVTFGQGTKVEIKRTGGGSGGGGSGGGASEVQLVESGGGLVQPGGSLRLSCAASGFNVYQSDMHWVRQAPGKGLEWVATIWPYSGYTYYADSVKGRFTISADTSKNTAYLQMNSLRAEDTAVYYCSRDGMYAFDYWGQGTLVTVSS
binding result (p53^WT/HLA-A*02:01 pHLA [10]): no binding

B10: p53_R175H_A2_cl15 (scFv)
scFv: DIQMTQSPSSLSASVGDRVTITCRASQDVNTAVAWYQQKPGKAPKLLIYSASFLYSGVPSRFSGSRSGTDFTLTISSLQPEDFATYYCQQSSYYPNTFGQGTKVEIKRTGGGSGGGGSGGGASEVQLVESGGGLVQPGGSLRLSCAASGFNLYQRDMHWVRQAPGKGLEWVAGLLYGSDHTEYADSVKGRFTISADTSKNTAYLQMNSLRAEDTAVYYCSRATYEEAFDYWGQGTLVTVSS
binding result (p53^WT/HLA-A*02:01 pHLA [10]): no binding

B11: p53_R175H_A2_cl16 (scFv)
scFv: DIQMTQSPSSLSASVGDRVTITCRASQDVNTAVAWYQQKPGKAPKLLIYSASFLYSGVPSRFSGSRSGTDFTLTITSLQPEDFATYYCQQQWSSPDTFGQGTKVEIKRTGGGSGGGGSGGGASEVQLVESGGGLVQPGGSLRLSCAASGFNLSYYDMHWVRQAPGKGLEWVALIYYGSGYTYYADSVKGRFTISADTSKNTAYLQMNSLRAEDTAVYYCSRGSYVSGMDYWGQGTLVTVSS
binding result (p53^WT/HLA-A*02:01 pHLA [10]): no binding

B12: H/K/N RAS Q61H_A1_cl2 (scFv)
scFv: DIQMTQSPSSLSASVGDRVTITCRASQDVNTAVAWYQQKPGKAPKLLIYSASFLYSGVPSRFSGSRSGTDFTLTISSLQPEDFATYYCQQYDYYPFTFGQGTKVEIKRTGGGSGGGGSGGGASEVQLVESGGGLVQPGGSLRLSCAASGFNISYEAMHWVRQAPGKGLEWVALIYPNHGITSYADSVKGRFTISADTSKNTAYLQMNSLRAEDTAVYYCSRYSSSAMDYWGQGTLVTVSS
binding result (RAS Q61WT[55-64] pHLA-A1 [3]): no binding

B13: H/K/N RAS Q61H_A1_cl3 (scFv)
scFv: DIQMTQSPSSLSASVGDRVTITCRASQDVNTAVAWYQQKPGKAPKLLIYSASFLYSGVPSRFSGSRSGTDFTLTISSLQPEDFATYYCQQSIYYPFTFGQGTKVEIKRTGGGSGGGGSGGGASEVQLVESGGGLVQPGGSLRLSCAASGFNLYTSQMHWVRQAPGKGLEWVALVYPGYYVTSYADSVKGRFTISADTSKNTAYLQMNSLRAEDTAVYYCSRGAYYYSSAMDYWGQGTLVTVSS
binding result (RAS Q61WT[55-64] pHLA-A1 [3]): no binding

B14: H/K/N RAS Q61H_A1_cl4 (scFv)
scFv: DIQMTQSPSSLSASVGDRVTITCRASQDVNTAVAWYQQKPGKAPKLLIYSASFLYSGVPSRFSGSRSGTDFTLTISSLQPEDFATYYCQQYDYYPFTFGQGTKVEIKRTGGGSGGGGSGGGASEVQLVESGGGLVQPGGSLRLSCAASGFNVFGYAIHWVRQAPGKGLEWVAEVYPGYDVTSYADSVKGRFTISADTSKNTAYLQMNSLRAEDTAVYYCSRYSWAGAFDYWGQGTLVTVSS
binding result (RAS Q61WT[55-64] pHLA-A1 [3]): no binding

— patent US20230051847A1 (Johns Hopkins, published 2023)
